Experimental data: patent US20210032312A1 (Janssen / Centocor, published 2021)
Positions count from the first letter of the chain named. Values belong to the binder of their own block, whether it stands above or below them.

Columns and labels:
human CD8A-Fc (in house) = target: T1, human CD8A-Fc (in house) (human, UniProt P01732 22-182, limits assumed); test: SPR (ProteOn), captured hCD8A-Fc
T1 construct: captured by goat anti-human Fc on the ProteOn chip; also called hCD8A-Fc; recombinant human CD8 alpha; not shown: linker/tag and Fc of human IgG1

[1] = target: T2, cynomolgus monkey CD8 alpha on primary cynomolgus CD8+ T cells (cynomolgus monkey, UniProt P01732 23-235 (human entry)); test: flow cytometry, cyno CD8+ T cells
T2 construct: also called Cyno CD8alpha; cyno CD8A
Protocol: (§1) Binding of the 190 ELISA hits to human and cynomologous monkey primary CD8 T cells was assessed by flow cytometry. The FN3 domain molecules were diluted to 2 μM and 0.2 μM in PBS and incubated with human or cynomologous monkey CD8+ T cells in 96-well format. After 1 hour at 4 C, the cells were washed once with PBS and then resuspended with an anti-FN3 domain antibody (PAB25) solution. Following this incubation, the cells were washed twice with PBS and a PE conjugated secondary antibody and a viability dye were added. Finally, cells were washed and resuspended in PBS for flow cytometric analysis using a BD Canto Instrument. Cells were gating on live cells and median fluorescence intensity of the bound Centyrins (PE channel) was calculated using Cytobank software.

[2] = target: T3, human CD8 alpha (CD8A) on primary human CD8+ T cells (human, UniProt P01732 22-235); test: flow cytometry, human CD8+ T cells
T3 construct: whole, on cells; also called hCD8A
Protocol: as §1

T2 sequence (P01732 other isoform, or with tags, fused parts or gaps limits assumed): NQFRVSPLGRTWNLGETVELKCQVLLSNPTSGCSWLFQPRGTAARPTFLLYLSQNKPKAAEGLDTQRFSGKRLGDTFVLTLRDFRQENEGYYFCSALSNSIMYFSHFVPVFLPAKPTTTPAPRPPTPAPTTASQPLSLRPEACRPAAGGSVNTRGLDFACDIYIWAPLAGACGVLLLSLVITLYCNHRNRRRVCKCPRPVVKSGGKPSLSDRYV
T1 sequence (P01732 22-182 limits assumed): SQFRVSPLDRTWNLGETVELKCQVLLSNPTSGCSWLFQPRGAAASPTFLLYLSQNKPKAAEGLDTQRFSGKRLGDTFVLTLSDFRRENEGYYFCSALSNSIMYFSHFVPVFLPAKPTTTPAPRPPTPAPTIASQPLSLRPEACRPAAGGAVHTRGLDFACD
T3 sequence (P01732 22-235): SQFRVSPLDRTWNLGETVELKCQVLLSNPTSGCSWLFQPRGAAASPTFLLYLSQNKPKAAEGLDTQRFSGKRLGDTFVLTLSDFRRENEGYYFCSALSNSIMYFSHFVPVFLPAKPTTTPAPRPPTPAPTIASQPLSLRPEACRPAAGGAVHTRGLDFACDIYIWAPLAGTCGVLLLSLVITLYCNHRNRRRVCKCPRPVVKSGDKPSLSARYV

B1: P283GR7P1367_B9 (designed binder)
chain: LPAPKNLVVSRVTEDSARLSWTAPDAAFDSFEIWYHEYHPRGEAIVLTVPSSERSYDLTGLKPGTEYDVVISGVKGGHWSYPLSAIFTT
notes: FN3 domain
koff (human CD8A-Fc (in house)): 0.00116 s⁻¹
Cyno T-cell Binding 0.2 uM (MFI) [1]: 442 MFI
Cyno T-cell Binding 2 uM (MFI) [1]: 2920 MFI
Human T-cell Binding 0.2 uM (MFI) [2]: 1090 MFI
Human T-cell Binding 2 uM (MFI) [2]: 11200 MFI

B4: P283FR9P1366_E11 (designed binder)
chain: LPAPKNLVVSRVTEDSARLSWTAPDAAFDSFDIAYPEWPVPGEAIVLTVPGSERSYDLTGLKPGTEYWVIIKGVKGGNISWPLSAIFTT
notes: FN3 domain
koff (human CD8A-Fc (in house)): 0.00141 s⁻¹
Cyno T-cell Binding 0.2 uM (MFI) [1]: 1470 MFI
Cyno T-cell Binding 2 uM (MFI) [1]: 14200 MFI
Human T-cell Binding 0.2 uM (MFI) [2]: 567 MFI
Human T-cell Binding 2 uM (MFI) [2]: 4590 MFI

B5: P283FR9P1366_G1 (designed binder)
chain: B4 chain with D32Y, A34S, W38L, P41E, K72W, N78A, I79T, W81E
notes: FN3 domain
koff (human CD8A-Fc (in house)): 0.000872 s⁻¹
Cyno T-cell Binding 0.2 uM (MFI) [1]: 4980 MFI
Cyno T-cell Binding 2 uM (MFI) [1]: 39800 MFI
Human T-cell Binding 0.2 uM (MFI) [2]: 650 MFI
Human T-cell Binding 2 uM (MFI) [2]: 3600 MFI

B7: P283FR9P1366_G8 (designed binder)
chain: B4 chain with W38L, V40I, P41G, W68F, I70V, K72Y, N78I, I79H, W81A
notes: FN3 domain
koff (human CD8A-Fc (in house)): 0.00108 s⁻¹
Cyno T-cell Binding 0.2 uM (MFI) [1]: 3130 MFI
Cyno T-cell Binding 2 uM (MFI) [1]: 37100 MFI
Human T-cell Binding 0.2 uM (MFI) [2]: 574 MFI
Human T-cell Binding 2 uM (MFI) [2]: 6860 MFI

B10: P283FR9P1366_H7 (designed binder)
chain: B4 chain with D32Q, W38Y, V40A, P41L, W68F, K72A, N78I, I79Q
notes: FN3 domain
koff (human CD8A-Fc (in house)): 0.00177 s⁻¹
Cyno T-cell Binding 0.2 uM (MFI) [1]: 1240 MFI
Cyno T-cell Binding 2 uM (MFI) [1]: 24400 MFI
Human T-cell Binding 0.2 uM (MFI) [2]: 567 MFI
Human T-cell Binding 2 uM (MFI) [2]: 13800 MFI

B11: P283FR9P1366_H10 (designed binder)
chain: B4 chain with D32N, V40P, P41E, W68F, I70V, K72Y, N78H, I79L, W81D
notes: FN3 domain
koff (human CD8A-Fc (in house)): 0.00063 s⁻¹
Cyno T-cell Binding 0.2 uM (MFI) [1]: 13900 MFI
Cyno T-cell Binding 2 uM (MFI) [1]: 75200 MFI
Human T-cell Binding 0.2 uM (MFI) [2]: 2410 MFI
Human T-cell Binding 2 uM (MFI) [2]: 25000 MFI

B12: P283FR9P1366_F9 (designed binder)
chain: B4 chain with D32H, A34F, W38L, V40I, P41A, I70N, K72S, N78Y, I79E
notes: FN3 domain
koff (human CD8A-Fc (in house)): 0.000494 s⁻¹
Cyno T-cell Binding 0.2 uM (MFI) [1]: 24600 MFI
Cyno T-cell Binding 2 uM (MFI) [1]: 84300 MFI
Human T-cell Binding 0.2 uM (MFI) [2]: 6300 MFI
Human T-cell Binding 2 uM (MFI) [2]: 33600 MFI

B13: P283FR9P1366_H8 (designed binder)
chain: LPAPKNLVVSRVTEDSARLSWTAPDAAFDSFYISYPEWPGSGEAIVLTVPGSERSYDLTGLKPGTEYAVFIWCVKGGWLSDPLSAIFTT
notes: FN3 domain
koff (human CD8A-Fc (in house)): 0.000175 s⁻¹
Cyno T-cell Binding 0.2 uM (MFI) [1]: 17100 MFI
Cyno T-cell Binding 2 uM (MFI) [1]: 61300 MFI
Human T-cell Binding 0.2 uM (MFI) [2]: 4540 MFI
Human T-cell Binding 2 uM (MFI) [2]: 24900 MFI

Continued, values first:

koff (human CD8A-Fc (in house)): 0.00124 s⁻¹
Cyno T-cell Binding 0.2 uM (MFI) [1]: 533 MFI
Cyno T-cell Binding 2 uM (MFI) [1]: 3190 MFI
Human T-cell Binding 0.2 uM (MFI) [2]: 1330 MFI
Human T-cell Binding 2 uM (MFI) [2]: 10000 MFI
B2: P283GR7P1367_E5 (designed binder)
chain: B1 chain with S51G
notes: FN3 domain

koff (human CD8A-Fc (in house)): 0.00518 s⁻¹
Cyno T-cell Binding 0.2 uM (MFI) [1]: 367 MFI
Cyno T-cell Binding 2 uM (MFI) [1]: 396 MFI
Human T-cell Binding 0.2 uM (MFI) [2]: 446 MFI
Human T-cell Binding 2 uM (MFI) [2]: 8300 MFI
B3: P283GR7P1367_B4 (designed binder)
chain: LPAPKNLVVSRVTEDSARLSWTAPDAAFDSFSILYYELPPSGEAIVLTVPGSERSYDLTGLKPGTEYTVSIFGVKGGDNSFPLSAIFTT
notes: FN3 domain

koff (human CD8A-Fc (in house)): 0.00127 s⁻¹
Cyno T-cell Binding 0.2 uM (MFI) [1]: 3130 MFI
Cyno T-cell Binding 2 uM (MFI) [1]: 37500 MFI
Human T-cell Binding 0.2 uM (MFI) [2]: 739 MFI
Human T-cell Binding 2 uM (MFI) [2]: 10900 MFI
B6: P283GR7P1367_B7 (designed binder)
chain: B4 chain with V40T, P41D, W68F, I70V, K72Y, N78H, I79W, W81Y
notes: FN3 domain

koff (human CD8A-Fc (in house)): 0.000635 s⁻¹
Cyno T-cell Binding 0.2 uM (MFI) [1]: 5670 MFI
Cyno T-cell Binding 2 uM (MFI) [1]: 66700 MFI
Human T-cell Binding 0.2 uM (MFI) [2]: 1030 MFI
Human T-cell Binding 2 uM (MFI) [2]: 11300 MFI
B8: P283GR7P1367_A11 (designed binder)
chain: B4 chain with V40T, P41D, W68F, K72Y, N78S, I79Y, W81E
notes: FN3 domain

koff (human CD8A-Fc (in house)): 0.00235 s⁻¹
Cyno T-cell Binding 0.2 uM (MFI) [1]: 864 MFI
Cyno T-cell Binding 2 uM (MFI) [1]: 4210 MFI
Human T-cell Binding 0.2 uM (MFI) [2]: 390 MFI
Human T-cell Binding 2 uM (MFI) [2]: 1620 MFI
B9: P283GR7P1367_H2 (designed binder)
chain: B4 chain with V40T, P41D, W68F, I70V, K72Y, N78G, I79R, W81Y
notes: FN3 domain
